Test results from patent US20020173621A1, “Method for producing dimerized polypeptide fusions” (ZymoGenetics, Inc., published 2002).

Tests used:
[1] = target: tetrameric PDGF β-receptor analog (purified from pSDL114+pSDL113 co-transfected cells) (human); test: saturation binding, analog plated at 12.1 ng/ml on goat anti-human IgG coated wells
[2] = target: tetrameric PDGF β-receptor analog (purified from pSDL114+pSDL113 co-transfected cells) (human); test: saturation binding, analog plated at 24.3 ng/ml on goat anti-human IgG coated wells
[3] = target: T1, tetrameric PDGF β-receptor analog (purified from pSDL114+pSDL113 co-transfected cells) (human); test: solid phase radioreceptor competition binding assay, analog plated at 48.6 ng/ml, unlabeled PDGF-BB against 125I-labeled PDGF-BBTyr
T1 heavy: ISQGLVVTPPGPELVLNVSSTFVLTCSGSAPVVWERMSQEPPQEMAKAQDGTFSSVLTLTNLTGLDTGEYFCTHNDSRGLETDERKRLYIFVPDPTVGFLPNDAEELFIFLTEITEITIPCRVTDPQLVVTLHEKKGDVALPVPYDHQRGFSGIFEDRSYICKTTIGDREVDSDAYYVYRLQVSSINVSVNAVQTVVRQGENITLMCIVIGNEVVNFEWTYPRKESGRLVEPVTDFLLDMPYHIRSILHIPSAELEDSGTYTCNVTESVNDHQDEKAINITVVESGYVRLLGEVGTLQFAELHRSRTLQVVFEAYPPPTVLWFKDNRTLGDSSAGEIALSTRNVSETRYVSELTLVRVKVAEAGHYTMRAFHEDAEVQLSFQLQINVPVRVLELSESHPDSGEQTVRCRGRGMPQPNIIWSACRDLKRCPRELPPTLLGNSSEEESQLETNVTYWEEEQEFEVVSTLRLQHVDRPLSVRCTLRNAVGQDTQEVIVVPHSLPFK
T1 light: T1 heavy
Description: In a solid phase radioreceptor competition binding assay (RRA), the wells of 96-well microtiter plates were coated with 100 μl of 2 μg/ml affinity purified goat anti-human IgG (Cappel Labs) diluted in 0.1 M Na₂HCO₃, pH 9.6. After an eighteen hour incubation at 4° C., the wells were washed once with ELISA C. The wells were blocked by incubation for 2 hours at 37° C. with 175 μl/well ELISA B. […] The unbound receptor was removed, and the test wells were incubated with increasing concentrations of serially diluted, unlabeled PDGF-BB (diluted in binding media. Following a two hour incubation at room temperature, the wells were washed three times with binding media. One hundred microliters of 5 ng/ml ¹²⁵I-labeled PDGF-BBTyr (Example 18.F.) was added to each well, and the plates were incubated for an additional two hours at room temperature. The wells were washed three times with binding media followed by a 5 minute incubation with 100 μl/well of 0.1 M citrate, pH 2.5. The samples were harvested and counted in a gamma counter.

Question: Which half-maximal binding [1] does the source give for “PDGF-BBTyr (PDGF-BB mutant molecule having a tyrosine replacing the phenylalanine at position 23) (from UniProt P01127) (ligand)” here?
Answer: 0.8 ng/mL

Question: And the half-maximal binding [2]?
Answer: 0.82 ng/mL

B1: PDGF-BB (ligand)
chain: SLGSLTIAEPAMIAECKTRTEVFEISRRLIDRTNANFLVWPPCVEVQRCSGCCNNRNVQCRPTQVQLRPVQVRKIEIVRKKPIFKKATVTLEDHLACKCETVAAARPVT
Question: B1 was tested. Which IC50 [3] did it give?
Answer: 8 ng/mL
